Data on 1 protein can be found in publication doi:10.1101/322404, “Discovery of a novel stereospecific β-hydroxyacyl-CoA lyase/thioesterase shared by three metabolic pathways in Mycobacterium tuberculosis” (bioRxiv, 2018).

The series deals with the molecule itself. As to the kind of experiment: crystal structure.

B1: Mycobacterium tuberculosis Rv2498c, β-hydroxyacyl-CoA lyase/thioesterase (enzyme)
chain: MNLRAAGPGWLFCPADRPERFAKAAAAADVVILDLEDGVAEAQKPAARNALRDTPLDPERTVVRINAGGTADQARDLEALAGTAYTTVMLPKAESAAQVIELAPRDVIALVETARGAVCAAEIAAADPTVGMMWGAEDLIATLGGSSSRRADGAYRDVARHVRSTILLAASAFGRLALDAVHLDILDVEGLQEEARDAAAVGFDVTVCIHPSQIPVVRKAYRPSHEKLAWARRVLAASRSERGAFAFEGQMVDSPVLTHAETMLRRAGEATSE
notes: also called β-HAClyase/thioesterase; CitE-like
In the case of B1, the stoichiometry N (in general, a count of units in the complex or per binding partner) came out at 3.
